Experimental data reported in US5595904.

How the values were obtained:
[1] = biological target: extracellular signal-regulated kinase 1 (ERK1) (rat)
[2] = biological target: microtubule-associated protein 2 (MAP2)

catalytic subunit of phosphatase 2a (enzyme)
specific activity of ERK1 with MAP2 after dephosphorylation [1]: 4 nmol/min/mg

extracellular signal-regulated kinase 1 (ERK1) (enzyme)
specific activity with MAP2 [2]: 300 nmol/min/mg

recombinant ERK2 (enzyme)
specific activity (phosphorylation of substrate) (MBP): 1 nmol/min/mg | specific activity (phosphorylation of substrate) [2]: 1 nmol/min/mg
